Assay results: paper PMC11198818, “Positive charges promote the recognition of proteins by the chaperone SlyD from Escherichia coli” (PLOS ONE, 2024)
Where a chain is given by its changes, count along the chain named.

Columns and labels:
Assay in all cases: ITC; VP-ITC (MicroCal), 30°C, 10 mM potassium phosphate buffer pH 7.6 or 7.8; SlyD or its variant 30 uM in the calorimetric cell, HiPIP precursor (RR-HiPIP) injected: 100 uM, 2x 22 injections of 10 uL (Fig 4); 200 uM, 23 injections of 10 uL (Fig 3)
Settings in all cases: both partners purified
[1] = target: T1, SlyD E108A, C-terminally hexahistidine-tagged (E. coli, UniProt P0A9K9 1-196, E108A)
T1 construct: FKBP-type peptidyl-prolyl cis-trans isomerase SlyD, E. coli; the tag is fused to the C-terminal domain; not shown: His6, C-terminal, kept
T1 sequence: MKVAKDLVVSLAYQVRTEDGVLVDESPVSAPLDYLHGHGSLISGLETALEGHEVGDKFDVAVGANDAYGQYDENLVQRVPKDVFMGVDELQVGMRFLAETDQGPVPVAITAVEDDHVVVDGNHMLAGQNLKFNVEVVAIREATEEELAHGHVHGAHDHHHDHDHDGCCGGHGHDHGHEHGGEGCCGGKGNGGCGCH

[2] = target: T2, SlyD Y68S, C-terminally hexahistidine-tagged (E. coli, UniProt P0A9K9 1-196, Y68S)
T2 construct: FKBP-type peptidyl-prolyl cis-trans isomerase SlyD, E. coli; the tag is fused to the C-terminal domain; not shown: His6, C-terminal, kept
T2 sequence: T1 sequence with Y68S, A108E

[3] = target: T3, SlyD F84A, C-terminally hexahistidine-tagged (E. coli, UniProt P0A9K9 1-196, F84A)
T3 construct: FKBP-type peptidyl-prolyl cis-trans isomerase SlyD, E. coli; the tag is fused to the C-terminal domain; not shown: His6, C-terminal, kept
T3 sequence: T1 sequence with F84A, A108E

[4] = target: T4, SlyD F84N, C-terminally hexahistidine-tagged (E. coli, UniProt P0A9K9 1-196, F84N)
T4 construct: FKBP-type peptidyl-prolyl cis-trans isomerase SlyD, E. coli; the tag is fused to the C-terminal domain; not shown: His6, C-terminal, kept
T4 sequence: T1 sequence with F84N, A108E

[5] = target: T5, SlyD E89A, C-terminally hexahistidine-tagged (E. coli, UniProt P0A9K9 1-196, E89A)
T5 construct: FKBP-type peptidyl-prolyl cis-trans isomerase SlyD, E. coli; the tag is fused to the C-terminal domain; not shown: His6, C-terminal, kept
T5 sequence: T1 sequence with E89A, A108E

[6] = target: T6, SlyD F96A, C-terminally hexahistidine-tagged (E. coli, UniProt P0A9K9 1-196, F96A)
T6 construct: FKBP-type peptidyl-prolyl cis-trans isomerase SlyD, E. coli; the tag is fused to the C-terminal domain; not shown: His6, C-terminal, kept
T6 sequence: T1 sequence with F96A, A108E

[7] = target: T7, SlyD F96G, C-terminally hexahistidine-tagged (E. coli, UniProt P0A9K9 1-196, F96G)
T7 construct: FKBP-type peptidyl-prolyl cis-trans isomerase SlyD, E. coli; the tag is fused to the C-terminal domain; not shown: His6, C-terminal, kept
T7 sequence: T1 sequence with F96G, A108E

B1: HiPIP precursor (RR-HiPIP) from Allochromatium vinosum (natural protein)
chain: MSDKPISKSRRDAVKVMLGTAAAIPMINLVGFGTARASAPANAVAADDATAIALKYNQDATKSERVAAARPGLPPEEQHCANCQFMQADAAGATDEWKGCQLFPGKLINVNGWCASWTLKAG
modifications: HiPIP precursor; fully folded, [4Fe-4S] cluster presumed; signal peptide retained
[1]
  stoichiometry N: 0.569 ± 0.015
[2]
  stoichiometry N: 0.462 ± 0.003
[3]
  stoichiometry N: 0.766 ± 0.011
[4]
  Kd: 6.62 ± 0.2 µM
  stoichiometry N: 0.532 ± 0.004
[5]
  Kd: 380 ± 40 nM
  stoichiometry N: 0.404 ± 0.004
[6]
  Kd: 4.88 ± 0.54 µM
  stoichiometry N: 0.66 ± 0.013
[7]
  Kd: 5.65 ± 0.3 µM
  stoichiometry N: 0.575 ± 0.007
